# Results from paper PMC13076993.
# How the values were obtained:
# [1] = biological target: human PD-1 (programmed cell death 1) on Jurkat cells (human) (UniProt Q15116)
# [2] = biological target: human PD-1 (programmed cell death 1) on Jurkat cells (human) (UniProt Q15116); remark: listed apart in the source
# Sequence of UniProt Q15116 (Q15116 25-288): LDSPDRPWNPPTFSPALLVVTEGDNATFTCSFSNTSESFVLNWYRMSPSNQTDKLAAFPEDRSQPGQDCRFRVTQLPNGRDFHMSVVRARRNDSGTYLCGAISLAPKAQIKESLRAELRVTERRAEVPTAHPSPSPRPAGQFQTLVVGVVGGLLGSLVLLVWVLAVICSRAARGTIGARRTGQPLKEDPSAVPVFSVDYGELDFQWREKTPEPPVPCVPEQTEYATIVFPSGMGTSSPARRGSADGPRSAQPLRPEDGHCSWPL
substance,measurement,setting,value
human PD-L1 extracellular domain (from E. coli) (from UniProt Q9NZQ7 19-238) (ligand),force at which the bond lifetime peaks,[1],7 pN
same,IL-2 secretion of Jurkat cells stimulated with CO-L1 beads (CD3 antibody and PD-L1) in the presence of soluble S-PDL1 at various concentrations,[2],100 µg/mL
